Experimental findings from publication PMC10052518 are described below.

The target in test [1] is hFcRn (human neonatal Fc receptor) (human) (UniProt P55899). Kind of test: SPR; Bia3000; hFcRn immobilised on CM5 chip (<200 RU); increasing concentrations of antibody injected over 180 s, dissociation 400 s; 25 °C; 50 mM phosphate, 150 mM NaCl, 0.05% P20, pH 7; multi-cycle kinetics, bivalent model fit. In general terms: In SPR one partner is held on a chip, and binding of the other changes the refractive index at the surface.
Chain of UniProt P55899 (P55899 24-297, chain 1 of 2): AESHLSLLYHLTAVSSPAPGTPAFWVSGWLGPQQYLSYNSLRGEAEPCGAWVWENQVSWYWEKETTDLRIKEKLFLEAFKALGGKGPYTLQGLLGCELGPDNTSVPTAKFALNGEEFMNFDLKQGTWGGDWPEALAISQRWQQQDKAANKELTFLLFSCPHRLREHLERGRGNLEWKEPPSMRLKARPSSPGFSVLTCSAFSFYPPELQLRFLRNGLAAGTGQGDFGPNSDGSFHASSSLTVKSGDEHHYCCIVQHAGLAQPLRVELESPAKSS
Chain of UniProt P55899 (P61769 21-119, chain 2 of 2, further chain): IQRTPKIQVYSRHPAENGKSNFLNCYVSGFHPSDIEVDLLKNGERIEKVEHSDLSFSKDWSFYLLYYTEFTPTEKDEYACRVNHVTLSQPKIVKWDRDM

Test [2] has the same target. Kind of test: SPR; bivalent fit, kd1.
Test [3] shares this target. Kind of test: SPR; bivalent fit, kd2 (second site).
Test [4] shares this target. Kind of test: SPR; Bia3000; hFcRn immobilised on CM5 chip (<200 RU); increasing concentrations of antibody injected over 180 s, dissociation 400 s; 25 °C; 50 mM phosphate, 150 mM NaCl, 0.05% P20, pH 6; multi-cycle kinetics, bivalent model fit.
The target is the same in test [5]. As to the kind of experiment: SPR; pH 7.0, bivalent fit, kd1.

“A3 (tocilizumab variant M252W/M428K/N434W) (antibody)”: the Kd in test [1] was 570 nM.
Consider “B5 (tocilizumab variant T256Y/H285Q/N286D/V308A/N434Y)”, for which the figures for the koff in test [2] and in test [3] were 0.0439 s⁻¹ and 0.000765 s⁻¹, respectively.
With “B5 (tocilizumab variant T256Y/H285Q/N286D/V308A/N434Y) (antibody)”, the Kd was 620 nM in test [1] and 45 nM in test [4].
On to “C7 (tocilizumab variant T256E/N286H/K288E/V308P/L309D/N434Y/Y436K)”, for which the figures for the off-rate (koff) in test [2] and in test [3] were 0.0053 s⁻¹ and 6.52e-05 s⁻¹, respectively.
Take “C7 (tocilizumab variant T256E/N286H/K288E/V308P/L309D/N434Y/Y436K) (antibody)”: the Kd is 160 nM in test [1] and 34 nM in test [4].
“T3 (tocilizumab variant M252Y/T307D/N434Y)”: in test [5], the koff was found to be 0.0263 s⁻¹.
Consider “T3 (tocilizumab variant M252Y/T307D/N434Y) (antibody)”, for which the Kd is 380 nM in test [1] and 13 nM in test [4].
Regarding “T8 (tocilizumab variant M252Y/N286E/T307Q/V308P/Q311A/N434Y/Y436V)”, the results for the koff in test [2] and in test [3] were 0.000658 s⁻¹ and 0.0383 s⁻¹, respectively.
Regarding “T8 (tocilizumab variant M252Y/N286E/T307Q/V308P/Q311A/N434Y/Y436V) (antibody)”, the Kd in test [1] came to 7.8 nM; in test [4], 1.3 nM.
Tocilizumab (antibody): in test [4], the Kd is 380 nM.

A word on the koff: it is a measure of how fast the partners let go of each other.
